Test results taken from patent publication US8435548 (BIO FD AND C, dated 2013).
Where no end group is shown, it is not given here. The star is where a group is joined. Galloyl = O=C(c1cc(O)c(O)c(O)c1)*

These binders were tested against mushroom tyrosinase (1,500 units/ml, Sigma) (mushroom) (assay: cell-based or functional assay).

Binder | Inhibition (%) of tyrosinase activity (absorbance at 490 nm, L-tyrosine substrate, compound at 100 µM)
Galloyl-KECG [Galloyl-tetrapeptide (lysyl-glutamyl-cysteinyl-glycine)] | 40%
KECG (also: two galloyl groups, attachment sites shown only in formula IV) [Digalloyl-tetrapeptide (lysyl-glutamyl-cysteinyl-glycine)] | 52%
Galloyl-Glu-Cys-Gly [Galloyl-tripeptide (glutamyl-cysteinyl-glycine)] | 34%
Galloyl-Tyr-His-Tyr [Galloyl-tripeptide (tyrosyl-histidyl-tyrosine)] | 15%
KYHY (also: two galloyl groups, attachment sites not given here) [Digalloyl-tetrapeptide (lysyl-tyrosyl-histidyl-tyrosine)] | 21%
Galloyl-YGGFLRKYPK [Galloyl-decapeptide (tyrosyl-glycyl-glycyl-phenylalanyl-leucyl-arginyl-lysyl-tyrosyl-prolyl-lysine)] | 5%
